# Laboratory results taken from the RNAGym collection of RNA variant scans (doi:10.1073/pnas.2313332121).
# Variants at the floor of the assay were thinned out.
# B1: TPR 5TU (parent)
# chain: GGAUCUUCUCGAUCUAACAAAAAAGACAAAUCUGCCACAAAGCUUGAGAGCAUCUUCGGAUGCAGAGGCGGCAGCCUUCGGUGGCGCGAUAGCGCCAACGUUCUCAACUAUGACACGCAAAACGCGUGCUCCGUUGAAUGGAGUUUAUCAUG
# Variants of: B1
# Assay: polymerase ribozyme fitness, log enrichment relative to wild type (log ratio); higher = more active; in vitro selection for triplet polymerase activity
# Summary of the method: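 The heterodimeric triplet polymerase ribozyme's subunits were each mutagenized into PCR-built libraries and transcribed. Every library was selected once, in triplicate, by annealing with a biotinylated primer, the partner subunit and triplets, incubating frozen at −7 °C, gel-excising extended constructs, capturing on streptavidin beads and running RT-PCR. Input and output libraries were Illumina-sequenced, with genotypes kept only at ≥10 input reads and ≥1 read per output. Fitness, from inverse-variance-weighted replicate averages, is the base-2 logarithm of genotype enrichment over wild-type enrichment.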
row,Variant,polymerase ribozyme fitness (log ratio)
1,U7C C38U G62C,-3.44
2,U7A A17U A24G U56A C93U U134A,≤ -4.2
3,U7G C75G G86C,≤ -4.2
4,U6G G62C U82G,-0.631
5,U7C A113G U139C,≤ -4.2
6,U6C C18G A23G C27U A30G C54U C63A G84A C103U,≤ -4.2
7,C8A C51A C57A G59A U61A G67C C95U C125U U134C U139A,≤ -4.2
8,C8A A64G U82A A91U A97C A122G A142C,≤ -4.2
9,U6A G25C G141A U146A,-2.69
10,C8U C38G A60C A107G G141C U151C,≤ -4.2
11,C8A A41U C76U A98G C116G G143C,≤ -4.2
12,U6C A26G A29U A73G C96A U104G,-3.88
13,C8G C96A,-4.07
14,C8U A17G A39G G84U C116A C118G U139C,≤ -4.2
15,U7A U61A A119U,≤ -4.2
16,C8G U15G A17G C18U A20C C32G A73G C93U C125U,≤ -4.2
17,U7G A52U G140C,≤ -4.2
18,U7A C93U A115G,≤ -4.2
19,C8U C14G C32A C36G G83A G117C,≤ -4.2
20,U6A A26G A64C C87U A89C U146C,≤ -4.2
21,U6G A20U G25A U31G C87A C96U C129A G136A G140C A150C,≤ -4.2
22,U7C U53A,-2.82
23,U6C C10G A28U C57U C63U U77A C85U G86U U144C,≤ -4.2
24,C8A C36A G68C C96U C99A G128C,≤ -4.2

row,Variant,polymerase ribozyme fitness (log ratio)
1,C8G A16U A37C A73C G84A U139C,≤ -4.2
2,U7G C38U,-2.77
3,C8G G11U G50A C116G U146G,≤ -4.2
4,C8G U31A A49C U53A G84A A119U A121C A137U,≤ -4.2
5,U7G A17C A142U U146C,-3.89
6,C8A C57G U82A A98G,≤ -4.2
7,U6G U7C A49G G71A C93G,≤ -4.2
8,U6G A12U G42C C76U C96G U134G U146G,≤ -4.2
9,U6C A21G C27A C54U G80C C87A U109C A147U,≤ -4.2
10,C8A G62A G92A,≤ -4.2
11,C8A A28C A30G C96A U127G,≤ -4.2
12,U7A A28C C57U C87G C95U C125A,≤ -4.2
13,U6C U78G U111G U134C,-4.14
14,U6G A52C U55C G71A G86C A119U,≤ -4.2
15,C8A G42A A49C G83U C93A G94A,≤ -4.2
16,U7G A41U U53A C54U U56A C57A G71U C95A G112C,≤ -4.2
17,U7C C85G,-3.47
18,U7C C85U,-2.04
19,C8A U33C U44A A52U C85U U104A A106G C125G G152U,≤ -4.2
20,U6A A64U A66G G84A,≤ -4.2
21,U6C G48C G59U U145C,-0.905
22,C8A C87U,-3.89
23,C8A C87G,≤ -4.2
24,C8U A20C G50C G71A C96A A98G C114U U148C,≤ -4.2

row,Variant,polymerase ribozyme fitness (log ratio)
1,U7G A22G C36A U56G G62U G88A,≤ -4.2
2,C8A C36U G62U C95G A115U,≤ -4.2
3,U6G C10A A40G A60G C75A G80C A107U G126A G133U U139G G143C,≤ -4.2
4,C8G G48C,-4.08
5,U7A C96U,-2.73
6,U6G U33A G42U C57U A64C C85G A107G G117C,≤ -4.2
7,C8U C38U C69A G83A A91C C118U,≤ -4.2
8,U7A G42U C76G C96G C99A U144A C149G,≤ -4.2
9,U7A G42A C85U A113U C116U C125G,≤ -4.2
10,U6A C10G C75G U78C C96G A97G U102G,≤ -4.2
11,U6C G50C G59A G68U A137C,≤ -4.2
12,U6G A73C,-2.87
13,U6G A73G,-0.521
14,U7C C93G,-4.04
15,C8A A19U G48C U56A C93U G140A A142G A150C,≤ -4.2
16,U7A C87U C96A A150U,-3.72
17,U7G C93U A98G G141A,-3.82
18,U7G A17U A52C C85U C116A,-3.83
19,C8G U31C C32G G48A A91U A122C G133A,≤ -4.2
20,U6A A24C A40U A52U C57A A98U A115C,≤ -4.2
21,U7G C103A,-3.85
22,C8G A16C A21G G48C C75A C87U A110U U144G,≤ -4.2
23,U7C U53G G94A,≤ -4.2
24,C8A G136A,-3.96

row,Variant,polymerase ribozyme fitness (log ratio)
1,C8G G94A,-3.64
2,U7C C35A C87A C95U C116G,≤ -4.2
3,C8G C10A C93U A106U A107U C108U U148G,≤ -4.2
4,U6C G74U U102A C123A,≤ -4.2
5,U7A G11C A52G A89C A91G C95U U111C C131U,≤ -4.2
6,C8G G92U,-3.57
7,C8G A23G A40G G67C C99U U102G U127C G143C,≤ -4.2
8,U7A A37G A47C G59C C72U G84C G88A C108A G141C,≤ -4.2
9,U7C A12U,-2.57
10,U6A U7G U13A C35A C54A G71U A91U U101A U127C G141U,≤ -4.2
11,U7G C72U C87A A98U A138C,≤ -4.2
12,U6G G92U C105A C114G A142U,≤ -4.2
13,U7A C32U C35U U90C G141C G143C,≤ -4.2
14,U6C G71A G92A A97G G141U,≤ -4.2
15,C8U A73G G83A,≤ -4.2
16,U6G G94A A115C,-1.5
17,U6G U146A,-1.17
18,C8A U55A,-3.18
19,U7G A39U C69U C95U C129G,≤ -4.2
20,U7A C51U,-3.25
21,U7G C87U,-3.04
22,C8G U78A,≤ -4.2
23,C8U A22C A39G C85G A106G A119G,≤ -4.2
24,U6A G50C G86U U102C A121C,≤ -4.2

row,Variant,polymerase ribozyme fitness (log ratio)
1,U6G A21U U45C A66U G141A U151A,≤ -4.2
2,U6C U31C A119G,-0.646
3,C8A A23C A26C U33C U78G A98G U144G,≤ -4.2
4,U6G C35U A91G A98G,-4.08
5,U7C C38A,-2.38
6,U7G C27U A37G C43A C57A G94A,≤ -4.2
7,U6G A22U C87U,0.101
8,C8U A142C,-3.25
9,U7C U13G A20C U31A C51U U53G C87G A89G C93U U139C A142U G143U G152A,≤ -4.2
10,U6A A115U G141U,-1.01
11,C8A G141A,-3.13
12,C8U A19G C79U C85G,≤ -4.2
13,C8G G58A,-3.1
14,U7A C54A G58C G92C A107U C116A,≤ -4.2
15,U7A C14G U31C G86A,≤ -4.2
16,C8A A17G A98G U144A,≤ -4.2
17,U6A C79A C99U A107G,≤ -4.2
18,C8A C14G A21G G25A U45C C75A G81U C85G C87G,≤ -4.2
19,U7G A21G U61G C85U C87A A106C,≤ -4.2
20,U6A C118G,-1.66
21,U6G G50U G83C A120U,-0.29
22,C8G C54U,-3.66
23,C8U A17G C36A G50C A115G,≤ -4.2
24,C8A A37C G59C C75A G92A,≤ -4.2

row,Variant,polymerase ribozyme fitness (log ratio)
1,U6C C32U C54A,-4
2,C8A A23C C38U A142G,≤ -4.2
3,C8U A20G A26U U56A C96U C105U G128C,≤ -4.2
4,U7C A16U G50A C54A C57A C72G C85G A98U G141A,≤ -4.2
5,C8A G94A C95A,≤ -4.2
6,U7C A41C C51U C54G U55A G58A C76G C87G C103A C125U,≤ -4.2
7,U7A C72G G80C C96U U104C A122G U146A,≤ -4.2
8,C8G A21G C27A A73C G92C U104G A150U,≤ -4.2
9,U7A A30U C32U C43U A60U C96A A107U,-3.92
10,C8A C96A,-3.5
11,U7G U55A A91U U130A G141C,≤ -4.2
12,U6C A40C G50U A97U U104A G124C U130A,≤ -4.2
13,U6G U9G U31A G48A C76G C87A U111C G140U,≤ -4.2
14,C8G C10A A40C G67A C75A C87A,≤ -4.2
15,U6G C38A A41C C95U U104C G126U,-2.03
16,U6A C75U C93G C131G,≤ -4.2
17,C8A A40U G71U C85G,≤ -4.2
18,C8U A22U A40U A47C,≤ -4.2
19,U6C A49C C99A U146C,≤ -4.2
20,U6G A19G U44A U82C C95U U139G,≤ -4.2
21,U6A C18U A49C C79A A91G U101C C103A,≤ -4.2
22,U6C A23U U31G G62A C95U C99G G100U C114U C129U,≤ -4.2
23,U7A G25U A39C A49U C54G C95U U111G,≤ -4.2
24,U6G C35U G58C A73G G140U,≤ -4.2

row,Variant,polymerase ribozyme fitness (log ratio)
1,U6G U31G A73G G86A A137U,≤ -4.2
2,U6G C76U C93G,-2.95
3,C8A A12G U13G C51A C57A G92U G124C U144C,≤ -4.2
4,C8G A41U A49G C95U A147U,≤ -4.2
5,U7G C51U G88C G92U C95U G100U,≤ -4.2
6,U6G C54A C75G C85A C105U A106U U111A G136U,≤ -4.2
7,U6C A40U C51U A52C C99U G112C,≤ -4.2
8,U6A U45A,-2.51
9,U6G A40U A115G,-1.66
10,U7G A23C A47C U53A C116A,≤ -4.2
11,U6A C57U A98G,-0.654
12,C8U A20G A24C A40C G50C G71C A89C C93U,≤ -4.2
13,C8A C76G G86U U109G G141U,≤ -4.2
14,C8G G48A C54U C69G C85G A91C,≤ -4.2
15,U7G G25A A28U C54A C85U U148G C149U,≤ -4.2
16,U6G A47G U53G U55A C76G C85G C103G G128U C129A U145G,≤ -4.2
17,U6G A26U A52G G141U U145G,≤ -4.2
18,C8G G34A G124A A137C,≤ -4.2
19,U6A U9A G92C C114A C118U C123G,≤ -4.2
20,C8G A41C C93G C103A A120U A142U,≤ -4.2
21,U6G C10G G68A C69U G84A,≤ -4.2
22,U6A C35U C95G G100A,≤ -4.2
23,U6G A12U A22C G59C U61G A73U,≤ -4.2
